Measurements published in PMC4110399 (Current Biology, 2014).

B1: FAM21 R20-21 fragment (domain or fragment)
chain: KSKKKVEAKSIFDDDMDDIFSTGIQAKTTKPKSRSAQAAPEPRFEHKVSNIFDDPLNAFGGQ
modifications: Limits not printed (construct is in cited ref 16); taken as the C-terminal tail spanning LFa motifs 20-21. The LFa 20/21 positions are recalled from the entry's annotation and not shown in the …
B2: FAM21 R20-21 fragment (domain or fragment)
chain: B1 chain

Columns and labels:
[1] = target: recombinant VPS35/VPS29 complex (wild type) (UniProt Q96QK1 1-796; Q9UBQ0 1-182); test: ITC; FAM21 R20-21 titrated into the VPS35/VPS29 complex; three experiments for each complex with two independently prepared protein samples; global fitting with SEDPHAT; conditions: both partners purified
[2] = target: recombinant VPS35(D620N)/VPS29 complex (UniProt Q96QK1 1-796; Q9UBQ0 1-182, D620N); test: as above; conditions: both partners purified

Row | Binder | Kd [1] | stoichiometry N [1] | Kd [2]
1 | B1 | 2.4 µM | 2 R20-21 per VPS35/VPS29 (by the order of the sentence) | –
2 | B2 | – | – | 4.6 µM
